Measured values: US20210171616A1 (Eli Lilly, published 2021)

T1: PACAP38 (human, K at residue 38 modified by C-terminal amidation)
T1 peptide: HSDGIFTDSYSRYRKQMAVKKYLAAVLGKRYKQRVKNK

T2: PACAP27 (human, L at residue 27 modified by C-terminal amidation)
T2 peptide: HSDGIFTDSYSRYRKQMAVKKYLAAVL

T3: VIP (UniProt P01282 125-152)
T3 peptide (looked up): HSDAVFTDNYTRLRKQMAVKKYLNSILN

T4: N-terminal biotinylated PACAP38 (Anaspec, #23590) (human, N-terminal biotin; K at residue 38 modified by C-terminal amidation (as stated for SEQ ID NO 13))
T4 construct: Bought peptide; also called Antigen (PACAP38)
T4 peptide: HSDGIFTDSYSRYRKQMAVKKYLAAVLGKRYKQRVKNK

T5: N-terminal biotinylated PACAP27 (custom synthesis, CPC Scientific) (human, N-terminal biotin; L at residue 27 modified by C-terminal amidation (as stated for SEQ ID NO 14))
T5 construct: Custom peptide; also called Antigen (PACAP27)
T5 peptide: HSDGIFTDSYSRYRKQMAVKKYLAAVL


Key:
[1] = biological target: T1, PACAP38; assay: cell-based or functional assay
[2] = biological target: T2, PACAP27; assay: cell-based or functional assay
[3] = biological target: T1, PACAP38; assay: cell-based or functional assay
[4] = biological target: T2, PACAP27; assay: cell-based or functional assay
[5] = biological target: T3, VIP; assay: cell-based or functional assay
[6] = biological target: T1, PACAP38; assay: cell-based or functional assay
[7] = biological target: T2, PACAP27; assay: cell-based or functional assay
[8] = biological target: T2, PACAP27; assay: cell-based or functional assay
[9] = biological target: T1, PACAP38; assay: cell-based or functional assay
[10] = biological target: T1, PACAP38; assay: cell-based or functional assay
[11] = biological target: T4, N-terminal biotinylated PACAP38 …; assay: kinetic exclusion 96-well MSD plate assay, solution equilibrium at 37 C, 30 pM biotinylated antigen
Protocol: (§1) Binding affinity (KD) for each antibody-antigen complex is determined using a kinetic exclusion 96-well plate-based assay (adapted from Estep et al., mAbs, 2013, 5:270-278). Briefly, a 3-fold dilution series for each Exemplified Ab (set forth in Table 1) is prepared from a starting concentration of 7290 pM to 41 fM; each series including an antibody-blank control. Samples are prepared in 3% (w/v) Blocker A solution (MSD, #R93AA-1) and a fixed final antigen concentration of 30 pM of N-terminal biotinylated PACAP27 (custom synthesis, CPC Scientific) or N-terminal biotinylated PACAP38 (Anaspec, #23590) is added to each sample. A volume of 100 μl of each antigen-antibody sample is added to individual wells of a 96-well microtiter plate (Greiner, EK-20101) in duplicate. The plate is sealed with optical adhesive film (Thermo Fisher Scientific, #4311971) and incubated at 37° C. for 3 to 4 days to allow for sample equilibrium. On the day before analysis, each row of a 96-well MSD Standard plate (MSD, #L15XA) is coated with 30 μl of the corresponding antibody (as used in the titration series) at a concentration of 3 μg/ml in phosphate buffered saline (PBS). On the day of the experiment, the MSD Standard plate is washed once with 150 μl PBS and blocked with 150 μl of 3% Blocker A solution for 45 min at 30° C. with shaking at 300 rpm on a MaxQ 4450 benchtop shaker (Thermo Fisher Scientific). Following three washes with PBS, 50 μl of each antigen-antibody sample (prepared and incubated as described above) is added to the MSD Standard plate and incubated for 150 seconds at 30° C. with shaking at 300 rpm. Following a single wash with PBS, 50 μl of 1 μg/ml SULFO-TAG labeled Streptavidin (MSD, #R32AD-5) prepared in 1% (w/v) Blocker A solution is added and the MSD Standard plate and the plate is incubated at 30° C. for 3 minutes with shaking at 300 rpm. The plate is washed three more times with PBS followed by the addition of 150 μl/well of 1× Read buffer (MSD, #R92TC-2). The MSD Standard plate is read using a MESO Quickplex SQ 120/1300 instrument (Meso Scale Discovery). Data analysis is done using SigmaPlot (Version 12.5, Systat Software) and binding affinity (KD) is determined using SigmaPlot's integrated Four Parameter Logistic Curve Model.

[12] = biological target: T5, N-terminal biotinylated PACAP27 (custom …); assay: as above
Protocol: as §1

| Molecule | Inhibition (IC50) of PACAP38 (100 pM) induced cAMP in hPAC1 CHO-K1 cells [3] | Inhibition (IC50) of PACAP38 (800 pM) induced cAMP in hVPAC2 CHO-K1 cells [3] | Inhibition (IC50) of PACAP27 (100 pM) induced cAMP in hPAC1 CHO-K1 cells [4] | Inhibition (IC50) of PACAP27 (800 pM) induced cAMP in hVPAC2 CHO-K1 cells [4] | Inhibition (IC50) of VIP (800 pM) induced cAMP in hVPAC2 CHO-K1 cells [5] | Percentage tryptase release in human mast cells upon addition of 1 uM PACAP38; antibody 153 uM, single point [6] | Percentage tryptase release in human mast cells upon addition of 1 uM PACAP27; antibody 153 uM, single point [7] | Percentage tryptase release upon addition of PACAP27; antibody dose 0 uM [8] | Percentage tryptase release upon addition of PACAP27; antibody dose 0.2 uM [8] | Percentage tryptase release upon addition of PACAP27; antibody dose 0.6 uM [8] | Percentage tryptase release upon addition of PACAP27; antibody dose 1.8 uM [8] | Percentage tryptase release upon addition of PACAP27; antibody dose 5.6 uM [8] | Percentage tryptase release upon addition of PACAP27; antibody dose 17 uM [8] | Percentage tryptase release upon addition of PACAP27; antibody dose 51 uM [8] | Percentage tryptase release upon addition of PACAP27; antibody dose 153 uM [8] | Percentage tryptase release upon addition of PACAP38; antibody dose 0 uM [9] | Percentage tryptase release upon addition of PACAP38; antibody dose 0.2 uM [9] | Percentage tryptase release upon addition of PACAP38; antibody dose 0.6 uM [9] | Percentage tryptase release upon addition of PACAP38; antibody dose 1.8 uM [9] | Kd [12] | further results |
| --- | --- | --- | --- | --- | --- | --- | --- | --- | --- | --- | --- | --- | --- | --- | --- | --- | --- | --- | --- | --- | --- |
| IgG4 mAb (negative control) (antibody) |  |  |  |  |  |  |  |  |  |  |  |  |  |  |  |  |  |  |  |  | Percentage tryptase release in human mast cells upon addition of 1 uM PACAP38; negative control antibody, single point [1]: 104%; Percentage tryptase release upon addition of PACAP38; negative control antibody dose 153 uM [1]: 79.6%; Plasma cAMP levels in CD-1 mice after iv PACAP38 (13 nmols/kg); control antibody 10 mg/kg sc [1]: 4.09 µM; Percentage tryptase release in human mast cells upon addition of 1 uM PACAP27; negative control antibody, single point [2]: 110%; Percentage tryptase release upon addition of PACAP27; negative control antibody dose 153 uM [2]: 94.8% |
| Exemplified Antibody B (antibody, human IgG4 S228P, kappa, F234A L235A, V domains shown, IgG4, kappa light chain; also called Exemplified Ab B; Ab B) VH: EVQLLESGGGLVQPGGSLRLSCAASGFTFSSYYMSWVRQAPGKGLEWVSAISLSGGSTYYAASHKGRFTISRDNSKNTLYLQMNSLRAEDTAVYYCVREVGASTHNYYGMDVWGQGTMVTVSS VL: DIQMTQSPSSLSASVGDRVTITCRASQSIWRWLAWYQQKPGKAPKLLIHDASQLFEGVPSRFSGSGSGTDFTFTISSLQPEDIATYYCQQFDLLPLTFGGGTKVEIKR | 265 pM | 294 pM | 270 pM | 605 pM | > 100000 pM | 4.9% | 21% | 85.2% | 78.1% | 54% | 11.7% | 8.1% | 11.6% | 19.4% | 10.3% | 77.2% | 73.7% | 52.4% | 25.2% | 0.0116 nM | Percentage tryptase release upon addition of PACAP38; antibody dose 5.6 uM [9]: 22%; Percentage tryptase release upon addition of PACAP38; antibody dose 17 uM [9]: 14.9%; Percentage tryptase release upon addition of PACAP38; antibody dose 51 uM [9]: 14.6%; Percentage tryptase release upon addition of PACAP38; antibody dose 153 uM [9]: 2%; Plasma cAMP levels in CD-1 mice after iv PACAP38 (13 nmols/kg); antibody 10 mg/kg sc [10]: 715 nM; Kd [11]: 0.0128 nM |

More lines, in order of falling Kd [12], values ahead:

| Inhibition (IC50) of PACAP38 (100 pM) induced cAMP in hPAC1 CHO-K1 cells [3] | Inhibition (IC50) of PACAP38 (800 pM) induced cAMP in hVPAC2 CHO-K1 cells [3] | Inhibition (IC50) of PACAP27 (100 pM) induced cAMP in hPAC1 CHO-K1 cells [4] | Inhibition (IC50) of PACAP27 (800 pM) induced cAMP in hVPAC2 CHO-K1 cells [4] | Inhibition (IC50) of VIP (800 pM) induced cAMP in hVPAC2 CHO-K1 cells [5] | Percentage tryptase release in human mast cells upon addition of 1 uM PACAP38; antibody 153 uM, single point [6] | Percentage tryptase release in human mast cells upon addition of 1 uM PACAP27; antibody 153 uM, single point [7] | Percentage tryptase release upon addition of PACAP27; antibody dose 0 uM [8] | Percentage tryptase release upon addition of PACAP27; antibody dose 0.2 uM [8] | Percentage tryptase release upon addition of PACAP27; antibody dose 0.6 uM [8] | Percentage tryptase release upon addition of PACAP27; antibody dose 1.8 uM [8] | Percentage tryptase release upon addition of PACAP27; antibody dose 5.6 uM [8] | Percentage tryptase release upon addition of PACAP27; antibody dose 17 uM [8] | Percentage tryptase release upon addition of PACAP27; antibody dose 51 uM [8] | Percentage tryptase release upon addition of PACAP27; antibody dose 153 uM [8] | Percentage tryptase release upon addition of PACAP38; antibody dose 0 uM [9] | Percentage tryptase release upon addition of PACAP38; antibody dose 0.2 uM [9] | Percentage tryptase release upon addition of PACAP38; antibody dose 0.6 uM [9] | Percentage tryptase release upon addition of PACAP38; antibody dose 1.8 uM [9] | Kd [12] | Molecule | further results |
| --- | --- | --- | --- | --- | --- | --- | --- | --- | --- | --- | --- | --- | --- | --- | --- | --- | --- | --- | --- | --- | --- |
| 554 pM | 714 pM | 2250 pM | 781 pM | > 100000 pM |  |  |  |  |  |  |  |  |  |  |  |  |  |  | 0.037 nM | Exemplified Antibody A (antibody, human IgG4 S228P, kappa, F234A L235A, V domains shown, IgG4, kappa light chain; also called Exemplified Ab A; Ab A) VH: EVQLLESGGGLVQPGGSLRLSCAASGFTFSSYYMSWVRQAPGKGLEWVSAISLSGGSTYYADSHKGRFTISRDNSKNTLYLQMNSLRAEDTAVYYCVREVGASNHNYYGMDVWGQGTMVTVSS VL: DIQMTQSPSSLSASVGDRVTITCRASQSISRWLAWYQQKPGKAPKLLIHDASQLLEGVPSRFSGSGSGTDFTFTISSLQPEDIATYYCQQFDLLPLTFGGGTKVEIKR |  |
| 303 pM | 325 pM | 311 pM | 595 pM | > 100000 pM | 5.5% | 14.2% | 85.8% | 85.2% | 55.4% | 10.4% | 11.5% | 8% | 17.8% | 9.7% | 80.3% | 77.6% | 66.6% | 26.5% | 0.0145 nM | Exemplified Antibody C (antibody, human IgG4 S228P, kappa, F234A L235A, V domains shown, IgG4, kappa light chain; also called Exemplified Ab C; Ab C) VH: EVQLLESGGGLVQPGGSLRLSCAASGFTFSSYYMSWVRQAPGKGLEWVSAISLSGGSTYYAESHKGRFTISRDNSKNTLYLQMNSLRAEDTAVYYCVREVGASTHNYYGMDVWGQGTMVTVSS VL: DIQMTQSPSSLSASVGDRVTITCRASQSIWRWLAWYQQKPGKAPKLLIHDASQLFEGVPSRFSGSGSGTDFTFTISSLQPEDIATYYCQQFDLLPLTFGGGTKVEIKR | Percentage tryptase release upon addition of PACAP38; antibody dose 5.6 uM [9]: 21.9%; Percentage tryptase release upon addition of PACAP38; antibody dose 17 uM [9]: 15.5%; Percentage tryptase release upon addition of PACAP38; antibody dose 51 uM [9]: 12.1%; Percentage tryptase release upon addition of PACAP38; antibody dose 153 uM [9]: 2.8%; Plasma cAMP levels in CD-1 mice after iv PACAP38 (13 nmols/kg); antibody 10 mg/kg sc [10]: 666 nM; Kd [11]: 0.0146 nM |
| 205 pM | 243 pM | 212 pM | 515 pM | > 100000 pM | 4.2% | 15.1% | 92.7% | 86.5% | 73% | 20.3% | 16.4% | 19.8% | 26% | 9.4% | 76.5% | 74% | 64.5% | 31.3% | 0.0105 nM | Exemplified Antibody D (antibody, human IgG4 S228P, kappa, F234A L235A, V domains shown, IgG4, kappa light chain; also called Exemplified Ab D; Ab D) VH: EVQLLESGGGLVQPGGSLRLSCAASGFTFSSYYMSWVRQAPGKGLEWVSAISLSGGSTYYAQSHKGRFTISRDNSKNTLYLQMNSLRAEDTAVYYCVREVGASTHNYYGMDVWGQGTMVTVSS VL: DIQMTQSPSSLSASVGDRVTITCRASQSIWRWLAWYQQKPGKAPKLLIHDASQLFEGVPSRFSGSGSGTDFTFTISSLQPEDIATYYCQQFDLLPLTFGGGTKVEIKR | Percentage tryptase release upon addition of PACAP38; antibody dose 5.6 uM [9]: 25.9%; Percentage tryptase release upon addition of PACAP38; antibody dose 17 uM [9]: 19.6%; Percentage tryptase release upon addition of PACAP38; antibody dose 51 uM [9]: 14.7%; Percentage tryptase release upon addition of PACAP38; antibody dose 153 uM [9]: 1.7%; Plasma cAMP levels in CD-1 mice after iv PACAP38 (13 nmols/kg); antibody 10 mg/kg sc [10]: 560 nM; Kd [11]: 0.009 nM |
